{
  "source": "the DeepSol protein solubility set",
  "experiment": "soluble on expression in E. coli; label from the status in PepcDB or PDB records",
  "data": [
    {"sequence": "MDYWEWKTDGAGLEADEVCITVQHGVTLYDKNEKTQRQNGKLSLTTHHLRYNDEADISTVLQLPLELVRRSGQAPSISSGFGPFSSAKIIVPLPKNAYVKLSFRSGGVDNFYAALVGALKKKTWLQTKTEAAASGRGSSSGASPASTTPVPNSRPPPPVPRGFGIAGVQQASLQSAAMSETLKDIDDVMNKASKLVNNIRRLRERSEAAAAAGSDAGSETAVERTTIESIESTLGLGAIVTRNHSNGSDSRFYRDLAVEMHTWMTHECNSKLFNDMPVVPLIELFALYNKARGGDLVSPLDVLNACTYMAAKMSSSCYDLVTLPSGRKALVNRDDSLLLAKLTTVLGPQLVNSKGSPVQDAWTKTSSQQQQRSGDASSLVRVSTTSDFPKASRDLKSVSDVSLAEKMQVATEVAADILTLLMLKGYLCCMDTGFDCYVYTWNIFVF", "values": [
      {"measurement": "soluble on expression in E. coli", "result": "not soluble"}
    ]},
    {"sequence": "MSLGNREILYKNLFYNAELFTCRFPELSAALGLDSEIGIKQFAERIPESYYLEEAKLKETDKKIFTARINGKYLHSKYNPISEAEKNISLDFFEDKKAKSSCVFCGLGLGYAQELYAKKYPKSSLIIIEPDLFVFFLFLQSRPLDDFFMHENLILLLGLYPKDVLDFFESKSFFDTPIFKIQSLIDVSSSWFSEFEALKKRRNEKTNLNKNTLKKFGKLWLKNFLKNIKQTEGLFGINKIENIFASCPALIIAAGPGLDDTINLVKENEDKFIIIAADTAVRACHRHGLKPDFILLMDAQYWNYLHLSDLDISDSILITESSVYPAVFRLKTRAKFLCTSMFPLAQYIEKLIGEKGKLVTGGSVATACWDFARILGCSEIIFAGLDLAFPDFQTHFKGSRFEEDVNAFSNRFFPSETASHLSLYSASPQLKEGYEGKVLSDKRMQMYAWWFESKIAEFPDIKTYNLLPRGLKIPNMPALSMEEFLLKAKASPLSKKIKIEKMSALFNLSSYKKEGSFSSPNLSSALKELSTDLEKTMKLAREGMDICLNLLDSLKTGKPLEDSIIKKVWKTEGHHHHHH", "values": [
      {"measurement": "soluble on expression in E. coli", "result": "soluble"}
    ]},
    {"sequence": "MGSDKIHHHHHHMKIGVVGPGAIGLLYTFYLQKSNQDVTLFTRTAKQADELNITGVTCIREGKRETVFPPVLPIESMLDQQLDYIFIAVKQYHITDILPFVRGKSSVVFLQNGMSHLHAMQKIENENIAVGIVEHGAKKEERHTVYHTGIGVTKFGIVRGRSIHFEKIFNCFPFPHFPIRIEDDWKGVMHKKLVVNVCINPLTALLQVKNGELITNPFFNQMMEQVFQEVVFLVKEEKEMVWEMVRHVCERTSHNTSSMLADVRANRQTEIGAIVGYVLEEAKKQQRSVPTLQFLFDAIKGLEVKV", "values": [
      {"measurement": "soluble on expression in E. coli", "result": "not soluble"}
    ]},
    {"sequence": "MGSDKIHHHHHHMSIIDLTKLEQKVATMWDSILTNSPFIHEVLDGKATKALYAIYMTETYHYTKHNAKNQALVGIMGKDLPGKYLSFCFHHAHEEAGHELMALSDIASIGFDREDVLSSKPLPATETLIAYLYWISATGNPVQRLGYSYWAENVYGYIDPVLKAIQSTLDLTPQSMKFFIAHSKIDAKHAEEVNEMLHEVCKTQEDVDSVVAVMENSLVLTARILDDVWKEYQLFQSGASDRYAFLRDNA", "values": [
      {"measurement": "soluble on expression in E. coli", "result": "not soluble"}
    ]},
    {"sequence": "MNIFEAIENRHSVRDFLERKMPERVKDDIENLLVKFITKKLDWKINLSSFPSYIYAKAEKHFDELVEYGFQGEQIVLFLTAQGFGTCWMARSPHPDVPYIIVFGYPRTRNFTRKRRPITSFLENDLEELPPEIVKIVEMTILAPSALNRQPWKIKYTGGELCISSERPVDLGIALSHAYLTAREIFKREPVIQKRGEDTYCLILNP", "values": [
      {"measurement": "soluble on expression in E. coli", "result": "not soluble"}
    ]},
    {"sequence": "MGSDKIHHHHHHMTVLHSVDFFPSGNASVAIEPRLPQADFPEHHHDFHEIVIVEHGTGIHVFNGQPYTITGGTVCFVRDHDRHLYEHTDNLCLTNVLYRSPDRFQFLAGLNQLLPQELDGQYPSHWRVNHSVLQQVRQLVAQMEQQEGENDLPSTASREILFMQLLLLLRKSSLQENLENSASRLNLLLAWLEDHFADEVNWDAVADQFSLSLRTLHRQLKQQTGLTPQRYLNRLRLMKARHLLRHSEASVTDIAYRCGFSDSNHFSTLFRREFNWSPRDIRQGRDGFLQ", "values": [
      {"measurement": "soluble on expression in E. coli", "result": "not soluble"}
    ]},
    {"sequence": "MKVFDVHKFDMKKEQDFLQVQFNLKNRINLSPTIHPDSINTGAGVDLAYWEQDGEPYGVCCIIVIDADTKEVIEKVHSMGRISVPYVSGFLAFRELPLIIEAAKKLETEPDVFLFDGNGYLHYNHMGVATHAAFFLGKPTIGIAKTYLKIKGCDFVTPEIEVGAYTDIIIDGEVYGRALRTRRDVKPIFLSCGNYIDLDSSYQITMSLINQESRLPIPVRLADLETHVLRTFYQKNHVLEHHHHHH", "values": [
      {"measurement": "soluble on expression in E. coli", "result": "soluble"}
    ]},
    {"sequence": "MGSDKIHHHHHHMTVRDFHYYEPAEGHGLSHNPLNALVAPRPIGWISSRDAQGRVNLAPYSFFNAFNYDPPIIGFSSIAWKDSVQNASETREFTWNLVTRELGDQMNQTSSPLPHGEDEFQFAGLTAVAGRKVNVPRVGESRAAMECKVIDIVQFRNTAGEKVGGWLVLGEVVAVYIDKTLLKDGVYQTAEAYPIMRSGGLNDYVQVSPDNVFQIARLAGASSPSSHGKG", "values": [
      {"measurement": "soluble on expression in E. coli", "result": "not soluble"}
    ]},
    {"sequence": "MSRFTDKVAIITGSSNGIGQATARLLASEGAKVTVTGRNAERLEETKNILLGAGVPEGNVLVVVGDITQESVQENLIKSTLDKFGKIDILVNNAGAGIPDAQGKSGVNQSIDTYHKTFELNVQSVIEMTQKARPHLAKTQGEIVNISSIGAGPAAQVASPYYSIAKAALDQYTRTAAIDLVPEGIRVNSVSPGAVSTGFSAVSRGLTEEKSKAFYDYLGAQRECIPRGFCAVPEDIAKVIAFLADRNASNYIIGQTIVADGGTSLILGAHAHGAKMMQAVFKEL", "values": [
      {"measurement": "soluble on expression in E. coli", "result": "not soluble"}
    ]},
    {"sequence": "MSIEPTQVSREAELGAFLRTHRERLTPSDVGLPPGRRRRTPGLRREEVAQLSGLSATWITWLEQGRPVAMSVRALGSLAEALRLSRAERAYLFALAGKPEPRQDAEPAVPVALLASVQAISGPAYLLDRQWTARAWNAAAADLFVGWLDAASGERNLLRAMFLPTALQALVEDWPHRAARLVAEFRVHSLRHAEDPPTRALIERLMEDSPAFAAAWRSQDVDERQGGRRGFHHPMRGLVYFEQLTLVPPAAPGMMLVMLLPETP", "values": [
      {"measurement": "soluble on expression in E. coli", "result": "soluble"}
    ]},
    {"sequence": "MIVLIDNYDSFTYNLYQLLGEYEEEIVVVRNDQITIEQLEEMNPKGIVLSPGPGKPEEAGICIEVIRHFYKNVPILGICLGHQAIISAFGGEIVRAERIKHGKTSRAKHNGTSIFSYVTQPLTAMRYHSLVAAQTSLPQCFDILATAMDDGEIMAVRHNYYPLFGLQFHPESIATEEGGKLIRAFLGEVKEEERV", "values": [
      {"measurement": "soluble on expression in E. coli", "result": "not soluble"}
    ]},
    {"sequence": "HRQLLSRDTHGFNVTVTSTIPEDAGLGDQEALIMAAALAFAHDYEDVHTAPIKAKFADVCFQASQAATGRPHVRARFDSALRGLASDLNIVDYSDGSVTHFPHPLNTQSDYAAFVVIPPVGAEQTAEVERRQAFITSAEKAFGTDSLRVLPDARERVIEWLQAVHEVCGTDDVPTITEAANWLEFMENETQAAINAAQAIKSRRHAACFDIVSESQRNLESLYTITTTDAMLSQLCLSRGAVSAR", "values": [
      {"measurement": "soluble on expression in E. coli", "result": "not soluble"}
    ]},
    {"sequence": "MGSDKIHHHHHHMDVLVVGATGTLGRQIARRALDEGHRVRCLVRSPKRGNFLREWGCDLVRGDLTQPESLTFALEGIEAVIDAATTRSTDSLSCYDVDWQGKVNLIKAATEAGVQRFVFCSIIDAEKHRDVPLMDIKYCTEEFLRQSGLNYTILRLAGFMQGLIAEFAIPVLEGRTAFITQDSDPIAYLSTLDIARFAVAALTTPATEKQTLPVVGPKAWSGLEIFRLCERLSGKETKIARLPLATVSAMKRFFRFFQWGWNIADRLAFSEVMACGRPFTADMAATYTAFGIDPAEITGLESYLNDYFSVMLRRLKELEFDQKKDKKKKVPF", "values": [
      {"measurement": "soluble on expression in E. coli", "result": "not soluble"}
    ]},
    {"sequence": "MRIFPVFLLTFSLFLIKEEIVTAEVKVSAPVVNQSGIKLNLERQFTGSDVAINRIHFSPDGQFLLTAAADGVGTLWTKEGEMLGQLQGQKPPMFNARLSPDRQILITTGYDGTIRLWNLQGELLEEQQPHRAAVADAIFSPDSQIIVTCSDDGQTKIFTRQGQEIASVLKSGTARNLAYHPQGLLIASVSDSGSLHLINPNGKIEREISTGQGRINNVNFSPNGEQLLTSGINGSAKLWNLAGELIHEYKVVPTGWVNSAQFYPKGEWLATASDDGTIRFWQKDGQLIYELPLVNARLTSLSFSPDGKQLAATSSQGQVWVFNLSYLEHHHHHH", "values": [
      {"measurement": "soluble on expression in E. coli", "result": "not soluble"}
    ]},
    {"sequence": "MAHHHHHHMPYNALVSSHLAELTLCKLAELMVPNDFNLFVLAIKDDLLSKALEDHSLFVFLSAAFVNAIIPKLKELKLEEDKDDSPHLCALRVRPHERPFKPRLLECLKDFKGKINAECRVLYKPEAKNFPLVDGFFFVESKPKIMVGLQMTTASEHHTIPSTVNLFKENMAKYFNGWEKFSRDMLWEIIYIQHADSTPLDGWQRCDYVNPRNKTDAENEIVAFWNGKVHQYQFVLTTEFVSKIREMKM", "values": [
      {"measurement": "soluble on expression in E. coli", "result": "not soluble"}
    ]}
  ]
}
